# Measured values taken from patent US7807387B2, “Biological agent that causes IL-6 receptor release” (Meyer Pharmaceuticals LLC, priority 2003, dated 2010).
# T1: p55 TNF Receptor (Homo sapiens, UniProt P19438)
# T1 construct: endogenous in cells; host or cells: THP-1
# T1 sequence (P19438 30-455): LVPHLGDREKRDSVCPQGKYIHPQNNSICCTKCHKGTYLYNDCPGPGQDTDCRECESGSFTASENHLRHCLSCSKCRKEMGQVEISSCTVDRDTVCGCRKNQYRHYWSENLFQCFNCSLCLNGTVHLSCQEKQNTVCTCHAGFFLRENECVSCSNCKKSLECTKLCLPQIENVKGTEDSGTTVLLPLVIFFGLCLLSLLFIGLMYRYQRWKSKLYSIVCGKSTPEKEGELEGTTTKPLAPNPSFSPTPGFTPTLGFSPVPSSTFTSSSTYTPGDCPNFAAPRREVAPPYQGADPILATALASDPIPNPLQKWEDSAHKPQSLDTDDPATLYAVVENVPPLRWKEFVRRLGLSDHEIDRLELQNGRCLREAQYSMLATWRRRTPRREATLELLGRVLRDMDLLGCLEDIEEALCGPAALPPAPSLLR
# T2: p75 TNF Receptor (Homo sapiens, UniProt P20333)
# T2 construct: endogenous in cells; host or cells: THP-1
# T2 sequence (P20333 23-461): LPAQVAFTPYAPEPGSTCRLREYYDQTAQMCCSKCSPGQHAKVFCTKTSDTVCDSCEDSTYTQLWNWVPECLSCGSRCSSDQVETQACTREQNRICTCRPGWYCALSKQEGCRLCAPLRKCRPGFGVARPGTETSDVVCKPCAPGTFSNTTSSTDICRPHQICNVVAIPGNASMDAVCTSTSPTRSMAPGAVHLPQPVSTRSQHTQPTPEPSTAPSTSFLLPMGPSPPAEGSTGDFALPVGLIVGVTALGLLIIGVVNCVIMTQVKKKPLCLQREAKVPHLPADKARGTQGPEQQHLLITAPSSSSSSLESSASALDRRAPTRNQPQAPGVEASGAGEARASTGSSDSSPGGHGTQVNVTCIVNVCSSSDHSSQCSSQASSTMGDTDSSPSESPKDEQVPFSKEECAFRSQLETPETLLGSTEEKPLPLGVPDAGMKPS
# B1: MP8: polypeptide having the sequence of SEQ. ID NO:41 (usually with a HIS tag); cytokine receptor releasing protein expressed in E. coli (protein, listed as Homo sapiens)
# chain: WIQRIRHEGNSTVYEWRTGTEPSVVERPHLEELPEQVAEDAIDWGDFGVEAVSEGTDSGISAEAAGIDWGIFPESDSKDPGGDGIDWGDDAVALQITVLEAGTQAPEGVARGPDALTLLEYTETRNQFLDELMELEIFLAQRAVELSEEADVLSVSQFQLAPAILQGQTKEKMVTMVSVLEDLIGKLTSLQLQHLFMILASPRYVDRVTEFLQQKLKQSQLLALKKELMVQKQQEALEEQAALEPKLDLLLEKTKELQKLIEADISKRYSGRPVNLMGTSL
# modifications: HIS tag
# notes: ID NO:41 (usually with a HIS tag); cytokine receptor releasing protein expressed in E. coli
# Legend:
# [1] = system: collagen-induced arthritis; test: Collagen-induced arthritis, treatment from 3 days before collagen; format: in vivo, DBA/1 LacJ mice
# Experimental: Collagen-induced arthritis is a standard model for evaluating potential therapeutic agents for rheumatoid arthritis (Courtenay et al., Nature 283:666, 1980; Williams et al., Proc Natl Acad Sci USA 89:9784, 1992; Gerlag et al., J Immunol 165:1652, 2000). Arthritis was induced in 7-9 week old female DBA/1 LacJ mice by immunization with collagen. On day 0, the mice were injected at the base of the tail with 100 μg bovine type II collagen in complete Freund's adjuvant. On day 7, mice were boosted with an intraperitoneal injection of 100 μg collagen. To enhance and synchronize synovitis, the mice were injected subcutaneously on day 14 with 100 μg of lipopolysaccharide (LPS). Joint swelling was monitored in a blinded fashion by measuring the diameter in all 4 paws and both ankles using a constant pressure gauge. Arthritis Index was also determined on the following scale, and summed for all extremities. 0≡normal; 1≡one digit swollen; 2≡more than one digit swollen; 3≡joint distortion; 4≡ankylosis. The arthritis experiments were conducted under contract by Calvert Preclinical Services, Inc., Olyphant Pa.
# As is typical in this model, not all animals respond to the collagen challenge.
# [2] = target: T1, p55 TNF Receptor; test: Cleavage of cell surface p55 TNF receptor on THP-1 cells; format: cell-based; details: 45 minutes at 37° C.
# Experimental: (§1) This cell line expresses both the p55 TNF receptor and the p75 TNF receptor. After incubating for 45 minutes at 37° C., the cells were washed, immunostained for cell surface receptor, and counted by flow cytometry.
# [3] = target: T2, p75 TNF Receptor; test: Cleavage of cell surface p75 TNF receptor on THP-1 cells; format: cell-based; details: 45 minutes at 37° C.
# Experimental: as §1
# [4] = target: IL-6 Receptor (Homo sapiens, UniProt P08887); test: FRET peptide cleavage assay, IL-6 receptor peptide; format: biochemical; details: Zn++ 0.1 mM, Ca++ 2 mM, corrected for EDTA, 37° C. for 3 hours
# Experimental: (§2) Cytokine-specific proteolytic activity can rapidly be quantified by Fluorescence Resonance Energy Transfer (FRET). Peptides having the amino acid sequence of the TNF Receptor or other protein substrates are labeled at opposite ends with a fluorescence emitter and a fluorescence quencher. The peptide is then incubated with a source of receptor cleaving enzyme, and fluorescence is measured. The quenching group normally absorbs fluorescence from the emitter. But enzymatic cleavage of the peptide decouples the quenching group, and fluorescence emission increases proportionally.
# (§3) The peptides used as substrates in the cleavage assay were taken from the known sites of proteolytic cleavage of the whole protein. The peptides were labeled with the fluorescence emitter (Edans-●) at the C-terminal, and the quenching hapten (Dabcyl-▴) at the N-terminal.
# (§4) The assay is conducted in the presence of the metal cations Zn^++ (0.1 mM) and Ca^++ (2 mM), and corrected for cleavage in the presence of EDTA (20 mM). Dependence on divalent cations confirms that the enzyme activity measured in this assay is a metalloprotease. The assay mixture also contains a cocktail of protease inhibitors and bovine albumin. Cleavage is measured as the net change in fluorescence emission after incubating the enzyme with the peptide at 37° C. for 3 hours. […]
# [5] = system: human IL-1 type 1 and type 2 receptors; test: FRET peptide cleavage assay, IL-1 receptor peptides; format: biochemical
# Experimental: as §2, §3, §4
# [6] = system: experimentally induced Asthma; test: Experimentally induced asthma (ovalbumin sensitization and aerosol challenge); format: in vivo, mice; details: treatment 1 h before aerosol challenge, 24 h and 48 h afterwards; lavage at 72 h
# Experimental: Mice were sensitized on Days 0, 7, and 14 with 10 μg ovalbumin in 1% aluminum hydroxide. On Day 21, the mice were challenged with the allergen in aerosol form (5% wt/vol in saline). Treatment with MP8 or control was administered 1 h before the aerosol challenge, and 24 h and 48 h afterwards. On Day 24 (72 h after the challenge), lungs were ravaged under anesthesia with 2×0.5 mL buffer to recover cells in the alveolar fluid.
molecule,measurement,setting,value
B1,effectiveness compared with Enbrel,"[1]; 300,000 FU daily",at least as effective as a scaled dose of Enbrel®
same,animals affected by arthritis,"[1]; 300,000 FU daily starting 3 days before first collagen injection, 8 out of 9 controls affected",none of the animals treated with MP8 were affected
same,joint swelling and arthritis index,"[1]; 300,000 FU daily, prophylactic",prevented the animals from showing any measurable signs of the disease
same,cleavage of p55 TNF receptor on the surface of cells,[2],cleaves
same,cleavage of p75 TNF receptor on the surface of cells,[3],cleaves
same,cleavage of IL-6 receptor peptide,[4],high activity
same,cleavage of IL-1 receptor,[5],cleaves
same,proportion of eosinophils,[6],substantially reduced
same,white blood cells migrating into the alveolar fluid,[6],reduced the number of the white blood cells migrating into the alveolar fluid
